In this assay the test system is GFP reporter gene. In words: Maltose / aspartate induction of Tar HK fusions, GFP reporter gene fluorescence, FACS screen. The assay is classed as cell-based, E. coli. Conditions: for maltose inducibility: maltose via MBP. In general terms: A reporter such as luciferase makes a cellular process visible.

B1: TazPhoR: TrzPhoR fusion with the Tar chemotactic receptor replacing the Trg chemotactic receptor, SEQ ID NO:16 (protein)
chain: MKLLSKTFLILTLTFFFFGIALAKMINRIRVVTLLVMVLGVFALLQLISGSLFFSSLHHSQKSFVVSNQLREQQGELTSTWDLMLQTRINLSRSAVRMMMDSSNQQSNAKVELLDSARKTLAQAATHYKKFKSMAPLPEMVATSRNIDEKYKNYYTALTELIDYLDYGNTGAYFAQPTQGMQNAMGEAFAQYALSSEKLYRDIVTDNADDYRFAQWQLAVIALVVVLILLVAWYGIRRMLLTPLAKIIAHIREIAGGNLANTLTIDGRSEMGDLAQSVSHMAAGVKQLEGARRNFFANVSHELRTPLTVLQGYLEMMNEQPLEGAVREKALHTMREQTQRMEGLVKQLLTLSKIEAAPTHLLNEKVDVPMMLRVVEREAQTLSQKKQTFTFEIDNGLKVSGNEDQLRSAISNLVYNAVNHTPEGTHITVRWQRVPHGAEFSVEDNGPGIAPEHIPRLTERFYRVDKARSRQTGGSGLGLAIVKHAVNHHESRLNIESTVGKGTRFSFVIPERLIAKNSD
modifications: Fusion protein
Take B1: the aspartate inducibility entry is recorded as “aspartate inducibility of both fusions was observed” and the maltose inducibility entry is “no maltose inducibility”.

B2: TazPhoR 61: Maltose inducible directed evolution variant of TazPhoR, SEQ ID NO:18 (protein)
chain: MKLLSKTFLILTLTFFFFGIALAKMINRIRVVTLLVMVLGVFALLQLISGSLFFSSLHHSQKSFVVSNQLREQQGELTSTWDLMLQTRINLSRSAVRMMMDSSNQQSNAKVELLDSARKTLAQAATHYKKFKSMAPLPEMVATSRNIDEKYKNYYTALTELIDYLDYGNTGAYFAQPTQGMQNAMGEAFAQYALSSEKLYRDIVTDNADDYRFAQWQLAVIALVVVLILLVAWYGIRRMLLTPLAKIIAHIREIAGGNLANTLTIDGRSEMGDLAQSVSHMAAGVKQLRRNFFANVSHELRTPLTVLQGYLEMMNEQPLEGAVREKALHTMREQTQRMEGLVKQLLTLSKIEAAPTHLLNEKVDVPMMLRVVEREAQTLSQKKQTFTFEIDNGLKVSGNEDQLRSAISNLVYNAVNHTPEGTHITVRWQRVPHGAEFSVEDNGPGIAPEHIPRLTERFYRVDKARSRQTGGSGLGLAIVKHAVNHHESRLNIESTVGKGTRFSFVIPERLIAKNSD
modifications: Fusion protein
Regarding B2, the maltose inducibility entry is recorded as “Maltose inducible”.

B3: Tac8: TrzChim3-8 with the chemotactic receptor Tar replacing the chemotactic receptor Trg, SEQ ID NO:22 (protein)
chain: MINRIRVVTLLVMVLGVFALLQLISGSLFFSSLHHSQKSFVVSNQLREQQGELTSTWDLMLQTRINLSRSAVRMMMDSSNQQSNAKVELLDSARKTLAQAATHYKKFKSMAPLPEMVATSRNIDEKYKNYYTALTELIDYLDYGNTGAYFAQPTQGMQNAMGERFAQYALSSEKLYRDIVTDNADDYRFAQWQLAVIALVVVLILLVAWYGIRRMLLTPLAKIIAHIREIAGGNLANTLTIDGRSEMGDLAQSVSHMAAGVKQLRGVRTLLMAGVSHDLRTPLTVLQGYLEMMNEQPLEGAVREKALHTMREQTQRMNAIIEQFIDYLRTGQEMPMEMADLNAVLGEVIAAESGYEREIETALYPGSIEVKMHPLSIKRAVANMVVNAARYGNGWIKVSSGTEPNRAWFQVEDDGPGIAPEQRKHLFQPFVRGDSARTISGTGLGLAIVQRIVDNHNGMLELGTSERGGLSIRAWLPVPVTRAQGTTKEG
modifications: Fusion protein
B3: the aspartate inducibility result is on record as “aspartate inducibility of both fusions was observed” and the maltose inducibility entry was “no maltose inducibility”.
